{"source": "the nanobody polyreactivity screen of Harvey et al. (2022)"}
{"assay": "yeast display, Sf9 membrane polyspecificity reagent, FACS + sequencing; frameworks hold sequencing errors", "outline": "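Genes from sorted yeast were amplified by colony PCR, read by MiSeq 2 × 250 sequencing and filtered on CDR length. These cells carried a synthetic nanobody library in Saccharomyces cerevisiae BJ5465 and were sorted by FACS into low and high (top ~1%) gates on anti-HA and streptavidin fluorescence. Polyreactivity is labelled according to the gate of origin.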"}
{"sequence": "QVQLVESGGGLVQAGGRLRLSCAASGFTFRAFTMGWYRQAPGKERELVAAITYSGGRTYYADSVKGRFTISRDNAKNTVYLQMNSLKPEDTAVYYCAKRGWALSEYYYWGQGTQVTVSS", "polyreactivity (PSR sort gate)": "high polyreactivity"}
{"sequence": "QVQLVESGGGLVQAGGRLRLSCAASGFTFRYYAMGWSRQAPGKERELVAGISYRGTSTYYADSVKGRFTISRDNAKNTVYLQMNSLKPEDTAVYYCADEVRYDRHDYWGQGTQVTVSS", "polyreactivity (PSR sort gate)": "high polyreactivity"}
{"sequence": "QVQLVESGGGLVQAGGRLRLSCAASGFTFYYKAMGWYRQAPGKEWELVASITWSGGRTYYADSVKGRFTISRDNAKNTVYFQMNSLKPEDTAVYYCNAGYCIGLVAYGYWGQGTQVTVSS", "polyreactivity (PSR sort gate)": "low polyreactivity"}
{"sequence": "QVQLVESGGGLVQAGGRLRLSCAASGIIFTVYAMGWYRQAPGKERELVAAITSSGGRTYYADSVKGRFTISRDNAKNTVYLHMNSLKPEDTAVYYCAARLPGYVRKYDYWGQGTQVTVSS", "polyreactivity (PSR sort gate)": "high polyreactivity"}
{"sequence": "QVQLVESGGGLVQAGGRLRLSCAASGITFDLYAMGWYSQAPGKERELVAAISISSTSTYYADSVKGRFTISRDYEKNTVYLQMNSLKPEDTAVYYCNAVPSSKTFWFDYWGQGTQVTVSS", "polyreactivity (PSR sort gate)": "low polyreactivity"}
{"sequence": "QVQLVESGGGLVQAGGRLRLSCAASGITFTFNAMGWYRQAPGKERELVAAITWSGGSTIYADSVKGRFTFSRDNAKNTVYLQMNSQKPEDTAVYNCARDTELYVRWLDYWGQGSQVTVSS", "polyreactivity (PSR sort gate)": "low polyreactivity"}
{"sequence": "QVQLVESGGGLVQAGGRLRLSCAASGITFYVYAMGWYRQAPGKVREFVAAISTRDGTTYADSVKGRFTISRDNAKNTVYLQMNRLKPEDTAVYFCAAAYYYDGQQGDFDYWGQGTQVTVSS", "polyreactivity (PSR sort gate)": "low polyreactivity"}
{"sequence": "QVQLVESGGGLVQAGGRLRLSCAASGLIFVWYAMGWYRQAPGKERELVAAISTSGGSTYYADSVKGRFTISRDNAKNTVYLQMNSLKPEDTAVYYCAAARRWWPQGYYWGQGTQVTVSS", "polyreactivity (PSR sort gate)": "high polyreactivity"}
{"sequence": "QVQLVESGGGLVQAGGRLRLSCAASGLIILRYTMGWYRQAPGKERELVAVITSGGRTYYADSVKGRFTISRDNAKNTVYLQMNSLKPEDTAVYYCAASVGLRTSFTGGGYWGQGTQVTVSS", "polyreactivity (PSR sort gate)": "high polyreactivity"}
{"sequence": "QVQLVESGGGLVQAGGRLRLSCAASGLNFYLYAMGWYTQAPGKERELVATITSAGRTNSADTVKGRFTISRDNAKNTVYLERNSLKPEYTAVYYCIRDVRFVGPSGFDYWGQGTEVTVSS", "polyreactivity (PSR sort gate)": "high polyreactivity"}
{"sequence": "QVQLVESGGGLVQAGGRLRLSCAASGNIFKRYTMGWYRQAPGKERELVAAISGGDSTNYADSVKGRFTISRDNANNTFYLQMNSLKPEDTAVYYCAAGGLTLWHGYILGYWGQGTQVTVSS", "polyreactivity (PSR sort gate)": "low polyreactivity"}
{"sequence": "QVQLVESGGGLVQAGGRLRLSCAASGRIFDANVMGWYRQAPGKERELVAAISSGGRTKYADSVKGRFTISRDNAKNNVYLQMNSLKPEDTAVYYCAKKHSPLYDYWGQGTQVTVSS", "polyreactivity (PSR sort gate)": "low polyreactivity"}
{"sequence": "QVQLVESGGGLVQAGGRLRLSCAASGRIFFRNTMGWYRQEPGKERQLVAAISGSGGSKYYADSVKGRFTISRDNAKNTVYLQMNSLKPEDTAVYYCAKRWLYPISYDYWGQGTQVTVSS", "polyreactivity (PSR sort gate)": "high polyreactivity"}
{"sequence": "QVQLVESGGGLVQAGGRLRLSCAASGRIFGVYAMGWYRQAPGKEREFVASITRGGGRTYYADSVKGRFTISRDNAKNTVYLQMNSLKPEDTAVYYCNAVVNSYPYYYWGQGTQVTVSS", "polyreactivity (PSR sort gate)": "high polyreactivity"}
{"sequence": "QVQLVESGGGLVQAGGRLRLSCAASGRIFKSYAMGWYRQAPGKERELVATISISGGSTYYADSVKGRFTISRDNAKNTVYLQMNSLKPEDTAVYYCASDRYGLGDYDYWGQGTQVTVSS", "polyreactivity (PSR sort gate)": "low polyreactivity"}
{"sequence": "QVQLVESGGGLVQAGGRLRLSCAASGRIFLPDGMGWYIQAAGKERELVATITIGGSSTYADSVKGRFTISRDNAKNTVNLQMNSLKPEHTAVYYCAVRRWVYYLHGYDYWGQGTQETVSS", "polyreactivity (PSR sort gate)": "low polyreactivity"}
{"sequence": "QVQLVESGGGLVQAGGRLRLSCAASGRIFRRYAMGWYRQAPGKERELVAAITSSGTSTHYADSVKGRFTISRDNAKNTVYLQMNSLKPEDTAVYYCAARYSTYPWYNYCGQGTQVTVSS", "polyreactivity (PSR sort gate)": "high polyreactivity"}
